Assay results as given in patent US20180318386A1, “PEPTIDES AND METHODS OF TREATING ENDOMETRIOSIS USING THE SAME” (BIOINCEPT, LLC, priority 2014, published 2018).

Legend:
Calreticulin (human) [1] = molecular target: Calreticulin (human) (UniProt P27797); test: PIF affinity resin pull-down, CD14+ cell lysate, LC-MS/MS count
Hornerin (human) = Hornerin (human) (UniProt Q86YZ3); test: as above
[2] = molecular target: Isoform 2 of Heat shock protein HSP 90-alpha (human) (UniProt P07900); test: as above
Thrombospondin-1 (human) [3] = molecular target: Thrombospondin-1 (human) (UniProt P07996); test: as above
[4] = molecular target: Lymphocyte-specific protein 1 (human) (UniProt P33241); test: as above
Calreticulin (human) [5] = molecular target: Calreticulin (human) (UniProt P27797); test: PIF affinity resin pull-down, CD4+ cell lysate, LC-MS/MS count
[6] = molecular target: Isoform 11 of Titin (human) (UniProt Q8WZ42); test: as above
[7] = molecular target: Actin, cytoplasmic 1 (human) (UniProt P60709); test: as above
[8] = molecular target: Serine/arginine-rich-splicing factor 1 (human) (UniProt Q07955); test: as above
[9] = molecular target: Thrombin light chain (human) (UniProt P00734); test: as above
[10] = molecular target: 14-3-3 protein zeta/delta (human) (UniProt P63104); test: as above
Chain of 14-3-3 protein zeta/delta (human) (P63104 whole entry, stated change not applied): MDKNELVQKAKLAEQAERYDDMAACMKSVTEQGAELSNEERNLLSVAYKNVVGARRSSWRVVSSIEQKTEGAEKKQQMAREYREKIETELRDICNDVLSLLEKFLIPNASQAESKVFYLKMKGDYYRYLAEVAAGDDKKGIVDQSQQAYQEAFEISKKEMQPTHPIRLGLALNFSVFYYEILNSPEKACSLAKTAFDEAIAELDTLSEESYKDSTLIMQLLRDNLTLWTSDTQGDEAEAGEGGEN

Nucleolin (human) = Nucleolin (human) (UniProt P19338); test: as above
Cofilin-1 (human) = Cofilin-1 (human) (UniProt P23528); test: as above
Chain of Cofilin-1 (human) (P23528 2-166 limits assumed): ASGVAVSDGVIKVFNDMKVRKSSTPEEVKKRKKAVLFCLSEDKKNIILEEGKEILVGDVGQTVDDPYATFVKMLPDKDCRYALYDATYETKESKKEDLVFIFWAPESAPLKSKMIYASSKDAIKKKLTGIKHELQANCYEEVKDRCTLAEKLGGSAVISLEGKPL

Thymosin alpha-1 (human) = Thymosin alpha-1 (human) (UniProt P06454); test: as above
Chain of Thymosin alpha-1 (human) (P06454 other isoform, or with tags, fused parts or gaps limits assumed): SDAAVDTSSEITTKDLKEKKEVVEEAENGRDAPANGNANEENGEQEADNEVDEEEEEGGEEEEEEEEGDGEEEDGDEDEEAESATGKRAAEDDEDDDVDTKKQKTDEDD

[11] = molecular target: Isoform 2 of Heat shock protein HSP 90-alpha (human) (UniProt P07900); test: as above
[12] = molecular target: Serine/arginine-rich-splicing factor 2 (human) (UniProt Q01130); test: as above
Thrombospondin-1 (human) [13] = molecular target: Thrombospondin-1 (human) (UniProt P07996); test: as above
[14] = molecular target: Glucosidase 2 subunit beta (human) (UniProt P14314); test: as above
Chain of Glucosidase 2 subunit beta (human) (P14314 other isoform, or with tags, fused parts or gaps limits assumed): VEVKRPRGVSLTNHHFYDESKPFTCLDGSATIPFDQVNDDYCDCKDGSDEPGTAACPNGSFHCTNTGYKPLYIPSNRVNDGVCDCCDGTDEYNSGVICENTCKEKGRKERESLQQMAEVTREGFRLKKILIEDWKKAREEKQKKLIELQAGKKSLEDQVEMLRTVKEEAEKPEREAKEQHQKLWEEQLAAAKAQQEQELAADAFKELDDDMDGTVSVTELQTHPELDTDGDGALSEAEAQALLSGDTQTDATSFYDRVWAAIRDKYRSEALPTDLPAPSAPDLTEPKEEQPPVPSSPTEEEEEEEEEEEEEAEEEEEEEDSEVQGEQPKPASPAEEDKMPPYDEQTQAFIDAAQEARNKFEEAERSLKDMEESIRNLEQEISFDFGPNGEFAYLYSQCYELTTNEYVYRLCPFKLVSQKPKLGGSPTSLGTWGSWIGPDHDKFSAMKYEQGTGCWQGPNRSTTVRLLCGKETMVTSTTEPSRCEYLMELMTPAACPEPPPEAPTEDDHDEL

Calmodulin (human) = Calmodulin (human) (UniProt P0DP23); test: as above
[15] = molecular target: Serum deprivation-response protein (human) (UniProt O95810); test: as above
Chain of Serum deprivation-response protein (human) (O95810 2-425 limits assumed): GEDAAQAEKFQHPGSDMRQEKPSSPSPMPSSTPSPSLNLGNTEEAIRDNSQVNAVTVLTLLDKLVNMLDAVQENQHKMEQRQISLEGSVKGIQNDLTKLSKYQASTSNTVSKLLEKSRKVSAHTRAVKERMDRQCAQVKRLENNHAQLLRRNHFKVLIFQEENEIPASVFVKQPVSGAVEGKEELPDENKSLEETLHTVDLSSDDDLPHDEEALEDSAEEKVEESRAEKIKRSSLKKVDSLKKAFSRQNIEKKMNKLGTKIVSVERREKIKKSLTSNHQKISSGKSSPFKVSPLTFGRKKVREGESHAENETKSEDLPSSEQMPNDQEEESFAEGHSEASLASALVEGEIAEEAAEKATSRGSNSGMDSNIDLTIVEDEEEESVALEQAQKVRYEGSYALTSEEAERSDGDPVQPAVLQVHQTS

[16] = molecular target: Histone H2A type 1-B/E (human) (UniProt P04908); test: as above
[17] = molecular target: Tropomyosin alpha-4 chain (human) (UniProt P67936); test: as above
Chain of Tropomyosin alpha-4 chain (human) (P67936 2-248 limits assumed): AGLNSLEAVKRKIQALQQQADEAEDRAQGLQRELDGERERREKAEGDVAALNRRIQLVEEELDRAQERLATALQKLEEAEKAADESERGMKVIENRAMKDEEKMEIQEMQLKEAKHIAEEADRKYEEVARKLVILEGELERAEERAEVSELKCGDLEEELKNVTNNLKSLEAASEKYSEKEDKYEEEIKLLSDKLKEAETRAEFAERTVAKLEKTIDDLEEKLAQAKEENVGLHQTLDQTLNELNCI

Serum albumin (human) = Serum albumin (human) (UniProt P02768); test: as above
[18] = molecular target: Cartilage oligomeric matrix protein (human) (UniProt P49747); test: as above

Chain of Calreticulin (human) (P27797 18-417 limits assumed): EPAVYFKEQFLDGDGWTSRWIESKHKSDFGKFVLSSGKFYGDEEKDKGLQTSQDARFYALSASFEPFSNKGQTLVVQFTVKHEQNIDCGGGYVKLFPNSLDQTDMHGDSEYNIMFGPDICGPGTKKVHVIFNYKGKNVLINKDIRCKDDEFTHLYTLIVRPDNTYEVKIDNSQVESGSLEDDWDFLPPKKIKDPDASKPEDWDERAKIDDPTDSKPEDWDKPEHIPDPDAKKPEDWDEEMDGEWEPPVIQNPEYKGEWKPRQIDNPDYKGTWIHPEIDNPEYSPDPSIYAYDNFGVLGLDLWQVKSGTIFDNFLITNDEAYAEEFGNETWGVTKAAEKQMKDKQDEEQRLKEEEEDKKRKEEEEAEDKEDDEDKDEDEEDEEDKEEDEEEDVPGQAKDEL
Chain of Hornerin (human) (Q86YZ3 whole entry, canonical isoform): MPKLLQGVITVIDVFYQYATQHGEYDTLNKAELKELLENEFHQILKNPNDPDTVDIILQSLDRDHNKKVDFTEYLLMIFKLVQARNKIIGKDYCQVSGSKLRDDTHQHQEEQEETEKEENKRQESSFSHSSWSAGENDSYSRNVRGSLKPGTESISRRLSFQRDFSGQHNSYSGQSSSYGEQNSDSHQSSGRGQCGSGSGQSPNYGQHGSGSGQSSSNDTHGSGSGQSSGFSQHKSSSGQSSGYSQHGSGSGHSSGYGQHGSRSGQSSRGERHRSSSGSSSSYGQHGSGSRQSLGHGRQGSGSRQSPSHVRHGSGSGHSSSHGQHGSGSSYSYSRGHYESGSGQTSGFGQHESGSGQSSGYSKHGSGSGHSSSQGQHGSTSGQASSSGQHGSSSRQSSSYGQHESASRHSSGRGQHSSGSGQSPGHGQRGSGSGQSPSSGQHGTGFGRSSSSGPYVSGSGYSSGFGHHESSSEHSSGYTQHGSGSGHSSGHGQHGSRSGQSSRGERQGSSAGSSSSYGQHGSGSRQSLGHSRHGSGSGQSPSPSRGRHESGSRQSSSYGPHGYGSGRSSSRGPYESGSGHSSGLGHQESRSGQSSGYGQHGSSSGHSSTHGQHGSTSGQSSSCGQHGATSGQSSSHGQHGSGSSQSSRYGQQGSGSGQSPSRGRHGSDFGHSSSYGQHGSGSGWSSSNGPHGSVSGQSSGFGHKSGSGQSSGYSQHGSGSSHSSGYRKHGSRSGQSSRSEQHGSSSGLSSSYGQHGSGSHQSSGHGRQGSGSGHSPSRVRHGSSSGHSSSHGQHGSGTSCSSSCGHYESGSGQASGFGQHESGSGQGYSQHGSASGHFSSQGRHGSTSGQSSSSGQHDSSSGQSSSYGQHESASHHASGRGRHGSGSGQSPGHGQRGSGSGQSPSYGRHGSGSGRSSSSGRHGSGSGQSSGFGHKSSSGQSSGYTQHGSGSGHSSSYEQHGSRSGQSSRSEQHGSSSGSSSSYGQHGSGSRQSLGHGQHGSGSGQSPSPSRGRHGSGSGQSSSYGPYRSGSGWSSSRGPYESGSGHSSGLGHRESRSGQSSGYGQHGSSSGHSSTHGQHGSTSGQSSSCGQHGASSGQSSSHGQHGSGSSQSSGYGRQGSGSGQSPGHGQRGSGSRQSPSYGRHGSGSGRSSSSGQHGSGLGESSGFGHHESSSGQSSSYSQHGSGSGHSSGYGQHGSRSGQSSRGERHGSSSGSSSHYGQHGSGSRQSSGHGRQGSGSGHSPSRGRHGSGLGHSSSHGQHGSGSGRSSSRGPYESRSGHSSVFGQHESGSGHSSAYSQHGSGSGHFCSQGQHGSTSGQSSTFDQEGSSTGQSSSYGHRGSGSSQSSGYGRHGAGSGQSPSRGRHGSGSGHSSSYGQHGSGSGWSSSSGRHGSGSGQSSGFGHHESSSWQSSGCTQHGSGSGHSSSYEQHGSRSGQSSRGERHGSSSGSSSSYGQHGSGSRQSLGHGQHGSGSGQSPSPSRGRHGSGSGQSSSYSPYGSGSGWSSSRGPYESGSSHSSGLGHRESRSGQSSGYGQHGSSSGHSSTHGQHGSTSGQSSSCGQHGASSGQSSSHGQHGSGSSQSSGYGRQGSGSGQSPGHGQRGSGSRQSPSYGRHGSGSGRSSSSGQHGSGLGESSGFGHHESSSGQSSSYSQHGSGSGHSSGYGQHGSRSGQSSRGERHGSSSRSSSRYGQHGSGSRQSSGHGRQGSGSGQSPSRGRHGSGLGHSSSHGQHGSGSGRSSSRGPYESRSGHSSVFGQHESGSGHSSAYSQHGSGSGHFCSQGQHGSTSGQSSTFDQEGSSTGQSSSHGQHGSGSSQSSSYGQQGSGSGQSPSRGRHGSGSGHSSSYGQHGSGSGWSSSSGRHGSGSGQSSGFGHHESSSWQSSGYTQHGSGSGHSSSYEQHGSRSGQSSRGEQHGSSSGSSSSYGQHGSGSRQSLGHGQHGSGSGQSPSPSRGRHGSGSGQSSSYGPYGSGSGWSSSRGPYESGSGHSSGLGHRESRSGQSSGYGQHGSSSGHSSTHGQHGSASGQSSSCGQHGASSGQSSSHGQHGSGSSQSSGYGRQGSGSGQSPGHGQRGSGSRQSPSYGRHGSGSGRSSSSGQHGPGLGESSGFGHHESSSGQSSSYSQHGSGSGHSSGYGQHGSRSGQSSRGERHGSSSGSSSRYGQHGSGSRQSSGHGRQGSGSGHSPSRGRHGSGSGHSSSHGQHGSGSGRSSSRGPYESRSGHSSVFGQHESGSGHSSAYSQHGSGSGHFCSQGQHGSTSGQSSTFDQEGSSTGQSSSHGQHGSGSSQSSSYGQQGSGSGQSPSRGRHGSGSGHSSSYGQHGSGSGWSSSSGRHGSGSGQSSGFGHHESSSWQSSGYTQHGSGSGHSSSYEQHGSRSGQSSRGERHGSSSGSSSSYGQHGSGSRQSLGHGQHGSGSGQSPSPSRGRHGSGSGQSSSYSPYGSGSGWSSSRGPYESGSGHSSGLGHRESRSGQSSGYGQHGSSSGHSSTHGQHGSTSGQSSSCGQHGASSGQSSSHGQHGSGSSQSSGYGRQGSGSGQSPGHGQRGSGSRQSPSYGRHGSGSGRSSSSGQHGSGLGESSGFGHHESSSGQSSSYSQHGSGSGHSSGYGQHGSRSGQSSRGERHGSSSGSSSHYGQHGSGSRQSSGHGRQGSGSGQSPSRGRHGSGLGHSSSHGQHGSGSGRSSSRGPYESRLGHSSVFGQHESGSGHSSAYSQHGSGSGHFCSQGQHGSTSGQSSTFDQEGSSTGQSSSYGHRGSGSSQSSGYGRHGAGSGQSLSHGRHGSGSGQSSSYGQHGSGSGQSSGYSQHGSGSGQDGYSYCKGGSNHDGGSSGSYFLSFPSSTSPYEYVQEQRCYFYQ

Substance: PIF15 affinity resin (Cys-C6 spacer-PIF15 conjugated to agarose) (peptide)
- Ave (Calreticulin (human) [1]): 6
- Inject 1 (Calreticulin (human) [1]): 7
- Inject 2 (Calreticulin (human) [1]): 4
- Inject 3 (Calreticulin (human) [1]): 6
- Ave (Hornerin (human)): 1
- Inject 1 (Hornerin (human)): 1
- Inject 2 (Hornerin (human)): 0
- Inject 3 (Hornerin (human)): 2
- Ave [2]: 1
- Inject 1 [2]: 1
- Inject 2 [2]: 2
- Inject 3 [2]: 1
- Ave (Thrombospondin-1 (human) [3]): 7
- Inject 1 (Thrombospondin-1 (human) [3]): 7
- Inject 2 (Thrombospondin-1 (human) [3]): 5
- Inject 3 (Thrombospondin-1 (human) [3]): 8
- Ave [4]: 2
- Inject 1 [4]: 4
- Inject 2 [4]: 2
- Inject 3 [4]: 1
- Ave (Calreticulin (human) [5]): 4
- Inject 1 (Calreticulin (human) [5]): 4
- Inject 2 (Calreticulin (human) [5]): 4
- Inject 3 (Calreticulin (human) [5]): 4
- Ave [6]: 2
- Inject 1 [6]: 2
- Inject 2 [6]: 2
- Inject 3 [6]: 2
- Ave [7]: 2
- Inject 1 [7]: 2
- Inject 2 [7]: 2
- Inject 3 [7]: 2
- Ave [8]: 2
- Inject 1 [8]: 2
- Inject 2 [8]: 2
- Inject 3 [8]: 2
- Ave [9]: 3
- Inject 1 [9]: 3
- Inject 2 [9]: 3
- Inject 3 [9]: 3
- Ave [10]: 3
- Inject 1 [10]: 3
- Inject 2 [10]: 3
- Inject 3 [10]: 3
- Ave (Nucleolin (human)): 2
- Inject 1 (Nucleolin (human)): 2
- Inject 2 (Nucleolin (human)): 2
- Inject 3 (Nucleolin (human)): 2
- Ave (Cofilin-1 (human)): 1
- Inject 1 (Cofilin-1 (human)): 1
- Inject 2 (Cofilin-1 (human)): 1
- Inject 3 (Cofilin-1 (human)): 1
- Ave (Thymosin alpha-1 (human)): 5
- Inject 1 (Thymosin alpha-1 (human)): 4
- Inject 2 (Thymosin alpha-1 (human)): 5
- Inject 3 (Thymosin alpha-1 (human)): 7
- Ave [11]: 4
- Inject 1 [11]: 4
- Inject 2 [11]: 4
- Inject 3 [11]: 4
- Ave [12]: 2
- Inject 1 [12]: 1
- Inject 2 [12]: 2
- Inject 3 [12]: 3
- Ave (Thrombospondin-1 (human) [13]): 6
- Inject 1 (Thrombospondin-1 (human) [13]): 6
- Inject 2 (Thrombospondin-1 (human) [13]): 6
- Inject 3 (Thrombospondin-1 (human) [13]): 6
- Ave [14]: 1
- Inject 1 [14]: 1
- Inject 2 [14]: 1
- Inject 3 [14]: 1
- Ave (Calmodulin (human)): 3
- Inject 1 (Calmodulin (human)): 3
- Inject 2 (Calmodulin (human)): 3
- Inject 3 (Calmodulin (human)): 3
- Ave [15]: 2
- Inject 1 [15]: 2
- Inject 2 [15]: 2
- Inject 3 [15]: 2
- Ave [16]: 2
- Inject 1 [16]: 2
- Inject 2 [16]: 2
- Inject 3 [16]: 2
- Ave [17]: 4
- Inject 1 [17]: 4
- Inject 2 [17]: 4
- Inject 3 [17]: 4
- Ave (Serum albumin (human)): 8
- Inject 1 (Serum albumin (human)): 4
- Inject 2 (Serum albumin (human)): 7
- Inject 3 (Serum albumin (human)): 12
- Ave [18]: 10
- Inject 1 [18]: 10
- Inject 2 [18]: 10
- Inject 3 [18]: 11
